Experimental findings from US20200317769A1 are described below.

This assay has as its target soluble cynomolgus monkey TNF-alpha (cynomolgus monkey) (UniProt P79337). The assay is described as follows: cell-based or functional assay.

Chain of soluble cynomolgus monkey TNF-alpha (cynomolgus monkey) (P79337 77-233 limits assumed): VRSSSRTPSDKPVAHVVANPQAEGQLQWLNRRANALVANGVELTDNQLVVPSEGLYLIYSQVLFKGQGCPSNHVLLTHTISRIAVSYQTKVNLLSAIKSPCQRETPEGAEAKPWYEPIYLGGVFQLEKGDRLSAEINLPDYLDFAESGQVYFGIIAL

The substance adalimumab (antibody) displayed an Inhibition of cynomolgus TNF-induced L929 cell cytotoxicity EC50 of 40 pM.
